The values that follow come from the supplement of paper PMC5998384.

In data set [1] the test system is HeLa Kyoto. The experiment in a line: melting temperature (median over replicates), in situ; higher = more thermally stable.
The subject of data set [2] is HeLa Kyoto. The experiment in a line: solubility change mitosis vs G1/S (difference of NP-40 vs SDS log2 ratios) (log2 ratio difference); higher = more soluble in mitosis.
Data set [3] concerns HeLa Kyoto. Nature of the data set: solubility in G1/S (NP-40 vs SDS abundance) (log2 ratio); higher = more soluble. The conditions noted are these: cell cycle stage: G1/S.
For data set [4], the system named is HeLa Kyoto. The experiment in a line: thermal stability score vs G1/S (z-score of summed log2 fold changes over temperatures); higher = more thermally stable than in G1/S.
Setting [5] is: cell cycle stage: early G1 (4.5 h after nocodazole release).
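Throughout, for melting temperature (median over replicates), in situ: HeLa Kyoto cells synchronized by double thymidine or nocodazole block, proteins quantified by TMT10plex mass spectrometry, three independent biological replicates.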
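Throughout, for solubility change mitosis vs G1/S (difference of NP-40 vs SDS log2 ratios): synchronized HeLa Kyoto cells (double thymidine block for G1/S, nocodazole release for mitosis), protein amounts in NP-40 versus SDS lysates quantified by mass spectrometry, three biological replicates.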
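Throughout, for solubility in G1/S (NP-40 vs SDS abundance): HeLa Kyoto cells arrested at G1/S by double thymidine block, proteins quantified by TMT10plex mass spectrometry in mild NP-40 versus SDS extracts, three biological replicates.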
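Throughout, for thermal stability score vs G1/S (z-score of summed log2 fold changes over temperatures): synchronized HeLa Kyoto cells, proteins quantified by TMT10plex mass spectrometry, three biological replicates, mitosis taken 0.5 h after nocodazole release, G1/S directly after double thymidine block.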

In the case of “MGPRKKSVKTCIMNNEIPEEMTADETKDYMNQLSHEVLCHIFRYLPLQDIMCMECLSRKLKEAVTLYLRVVRVVDLCAGRWWEYMPSGFTDASFLTLLKKMPDVEQLYGLHPRYLERRRVRGHEAFSIPGVLEALQACPNLVGVETSHLELVESIWTYMPHVHILGKFRNRNGAFPIPPENKLKIPIGAKIQTLHLVGVNVPEIPCIPMLRHLYMKWVRLTKPQPFKDFLCISLRTFVMRNCAGPTNSLKYVPLVTGLASARNLEHLEMVRVPFLGGLIQHVVEDSWRSGGFRNLHTIVLGACKNALEVDLGYLIITAARRLHEVRIQPSLTKDGVFSALKMAELEFPQFETLHLGYVDEFLLQSRMANADLVKYGLADVVENPGIITDIGMKAVNEVFSCIKYLAIYNCPHLHNPYNWISDHSRWTRLVDINLVRCHALKLDSFGQFIELLPSLEFISLDQMFREPPKGCARVGLSAGTGIGVSSALVSNQNSNNDDNNAQNNNANIHDNNHHHPDDSDEENDFRQDLQPGEQQFAADALNEMEDIVQEDGEVVAESGNNTPAHSQAIIPVDVDEEQAGPSGLQRVVKPTSITVHDSESDDEEDSLELQEVWIPKNGTRRYSEREEKTGESVQSRELSVSGKGKTPLRKRYNSHQMGQSKQFPLEESSCEKGCQVTSEQIKADMKAARDIPEKKKNKDVYPSCSSTTASTVGNSSSHNTASQSPDFVRTVNSGGSSEPSPTEVDVSRQCACSPGGSEDSEAMEEGDAESSVCPRCCCHRPQESQRRTSRCSDEERPSTSRACVVNGPDGTRSAFSFRTLPQGGSSGPAHDERTNGSGSGATGEDRRGSSQPESCDVQSNEDYPRRPLTRARSRLSHVLLVSESEVAKTKPRHAMKRKRTADKSTSTSDPVIEDDHVQVLVLKSKNLVGVTMTNCGITDLVLKDCPKMMFIHATRCRVLKHLKVENAPIVNRFDYAQCKKLNMDQVLDQILRMPPERNRIIYLRPMQQVDTLTLEQKLFSGPYPYHICIIHEFSNPPNVRNKVRIRSWMDTIANINQELIKYEFFPEATRSEEDLKKYPKYPWGREIYTLEGVVDGAPYSMISDFPWLRSLRAAEPNSFARYDFEDDEESTIYAPRRKGQLSADICMETIGEEISEMRQMKKGVFQRVVAIFIHYCDVNGEPVEDDYI [FBXO38]”, the melting temperature in the data set with HeLa Kyoto [1] (cell cycle stage: G1/S) turned out to be 51.6 °C; in the data set on HeLa Kyoto [1] (cell cycle stage: mitosis), 51.3 °C. The “solubility change mitosis (log2)” value with HeLa Kyoto [2] is -0.0833. Also, the “solubility in G1/S (log2)” value in the data set with HeLa Kyoto [3] was -0.338. Besides, the thermal stability score in the data set on HeLa Kyoto [4] (setting [5]) was -0.768; in the data set with HeLa Kyoto [4] (cell cycle stage: mitosis), -0.745.
For the sequence “MGPRSRERRAGAVQNTNDSSALSKRSLAARGYVQDPFAALLVPGAARRAPLIHRGYYVRARAVRHCVRAFLEQIGAPQAALRAQILSLGAGFDSLYFRLKTAGRLARAAVWEVDFPDVARRKAERIGETPELCALTGPFERGEPASALCFESADYCILGLDLRQLQRVEEALGAAGLDAASPTLLLAEAVLTYLEPESAAALIAWAAQRFPNALFVVYEQMRPQDAFGQFMLQHFRQLNSPLHGLERFPDVEAQRRRFLQAGWTACGAVDMNEFYHCFLPAEERRRVENIEPFDEFEEWHLKCAHYFILAASRGDTLSHTLVFPSSEAFPRVNPASPSGVFPASVVSSEGQVPNLKRYGHASVFLSPDVILSAGGFGEQEGRHCRVSQFHLLSRDCDSEWKGSQIGSCGTGVQWDGRLYHTMTRLSESRVLVLGGRLSPVSPALGVLQLHFFKSEDNNTEDLKVTITKAGRKDDSTLCCWRHSTTEVSCQNQEYLFVYGGRSVVEPVLSDWHFLHVGTMAWVRIPVEGEVPEARHSHSACTWQGGALIAGGLGASEEPLNSVLFLRPISCGFLWESVDIQPPITPRYSHTAHVLNGKLLLVGGIWIHSSSFPGVTVINLTTGLSSEYQIDTTYVPWPLMLHNHTSILLPEEQQLLLLGGGGNCFSFGTYFNPHTVTLDLSSLSAGQ [LCMT2]”, the values for the melting temperature in the data set on HeLa Kyoto [1] (cell cycle stage: G1/S) and with HeLa Kyoto [1] (cell cycle stage: mitosis) were 51.2 °C and 50.7 °C, respectively. Moreover, the “solubility change mitosis (log2)” value in the data set with HeLa Kyoto [2] is -0.199. In addition, in the data set with HeLa Kyoto [3], the “solubility in G1/S (log2)” value was -0.0889. The values for the thermal stability score in the data set on HeLa Kyoto [4] (setting [5]) and with HeLa Kyoto [4] (cell cycle stage: mitosis) were -0.211 and -0.346, respectively.
Turning to “MGQIEWAMWANEQALASGLILITGGIVATAGRFTQWYFGAYSIVAGVFVCLLEYPRGKRKKGSTMERWGQKYMTAVVKLFGPFTRNYYVRAVLHLLLSVPAGFLLATILGTACLAIASGIYLLAAVRGEQWTPIEPKPRERPQIGGTIKQPPSNPPPRPPAEARKKPSEEEAAVAAGGPPGGPQVNPIPVTDEVV [CYBA]”, the melting temperature in the data set on HeLa Kyoto [1] (cell cycle stage: G1/S) was found to be 54.8 °C; in the data set with HeLa Kyoto [1] (cell cycle stage: mitosis) it was 54 °C. Moreover, the “solubility change mitosis (log2)” value in the data set on HeLa Kyoto [2] was -0.167. The “solubility in G1/S (log2)” value with HeLa Kyoto [3] amounted to 0.005. Moreover, the thermal stability score with HeLa Kyoto [4] (setting [5]) is -0.561; with HeLa Kyoto [4] (cell cycle stage: mitosis) it was -1.21.
“MGQREMWRLMSRFNAFKRTNTILHHLRMSKHTDAAEEVLLEKKGCTGVITLNRPKFLNALTLNMIRQIYPQLKKWEQDPETFLIIIKGAGGKAFCAGGDIRVISEAEKAKQKIAPVFFREEYMLNNAVGSCQKPYVALIHGITMGGGVGLSVHGQFRVATEKCLFAMPETAIGLFPDVGGGYFLPRLQGKLGYFLALTGFRLKGRDVYRAGIATHFVDSEKLAMLEEDLLALKSPSKENIASVLENYHTESKIDRDKSFILEEHMDKINSCFSANTVEEIIENLQQDGSSFALEQLKVINKMSPTSLKITLRQLMEGSSKTLQEVLTMEYRLSQACMRGHDFHEGVRAVLIDKDQSPKWKPADLKEVTEEDLNNHFKSLGSSDLKF [HIBCH]”: the melting temperature in the data set with HeLa Kyoto [1] (cell cycle stage: G1/S) was 49.7 °C; in the data set on HeLa Kyoto [1] (cell cycle stage: mitosis), 50.2 °C. The “solubility change mitosis (log2)” value in the data set on HeLa Kyoto [2] was -0.019. The “solubility in G1/S (log2)” value in the data set on HeLa Kyoto [3] stood at 0.343. Further, the figures for the thermal stability score in the data set on HeLa Kyoto [4] (setting [5]) and in the data set with HeLa Kyoto [4] (cell cycle stage: mitosis) were 0.653 and 0.967, respectively.
Turning to “MGQSGRSRHQKRARAQAQLRNLEAYAANPHSFVFTRGCTGRNIRQLSLDVRRVMEPLTASRLQVRKKNSLKDCVAVAGPLGVTHFLILSKTETNVYFKLMRLPGGPTLTFQVKKYSLVRDVVSSLRRHRMHEQQFAHPPLLVLNSFGPHGMHVKLMATMFQNLFPSINVHKVNLNTIKRCLLIDYNPDSQELDFRHYSIKVVPVGASRGMKKLLQEKFPNMSRLQDISELLATGAGLSESEAEPDGDHNITELPQAVAGRGNMRAQQSAVRLTEIGPRMTLQLIKVQEGVGEGKVMFHSFVSKTEEELQAILEAKEKKLRLKAQRQAQQAQNVQRKQEQREAHRKKSLEGMKKARVGGSDEEASGIPSRTASLELGEDDDEQEDDDIEYFCQAVGEAPSEDLFPEAKQKRLAKSPGRKRKRWEMDRGRGRLCDQKFPKTKDKSQGAQARRGPRGASRDGGRGRGRGRPGKRVA [PPAN]”, the values for the melting temperature in the data set on HeLa Kyoto [1] (cell cycle stage: G1/S) and with HeLa Kyoto [1] (cell cycle stage: mitosis) were 52.2 °C and 52 °C, respectively. In addition, in the data set on HeLa Kyoto [2], the “solubility change mitosis (log2)” value turned out to be 1.07. For the same sequence, the “solubility in G1/S (log2)” value with HeLa Kyoto [3] was -1.97. For the same sequence, the thermal stability score in the data set on HeLa Kyoto [4] (setting [5]) is -0.721; with HeLa Kyoto [4] (cell cycle stage: mitosis), -2.53.
